From paper PMC3049928

Substrate: Nc1ncnc2c1ncn2[C@@H]1O[C@H](COP(=O)(O)O)[C@@H](OP(=O)(O)O)[C@H]1O
Experiment: purified protein
Assay type: biochemical, Homo sapiens
Settings: varied pNPS, no added alcohol, 50 mM phosphate pH 6.2, 37 °C

B1: SULT1A1 (human phenol sulfotransferase, human sulfotransferase 1A1) (Homo sapiens) (protein)
chain: MELIQDTSRPPLEYVKGVPLIKYFAEALGPLQSFQARPDDLLISTYPKSGTTWVSQILDMIYQGGDLEKCHRAPIFMRVPFLEFKAPGIPSGMETLKDTPAPRLLKTHLPLALLPQTLLDQKVKVVYVARNAKDVAVSYYHFYHMAKVHPEPGTWDSFLEKFMVGEVSYGSWYQHVQEWWELSRTHPVLYLFYEDMKENPKREIQKILEFVGRSLPEETVDFVVQHTSFKEMKKNPMTNYTTVPQEFMDHSISPFMRKGMAGDWKTTFTVAQNERFDADYAEKMAGCSLSFRSEL
B1 showed a Km of 34 ± 6 µM, a kcat of 0.000633 ± 0.000117 s⁻¹ and a kcat/Km of 18.3 ± 3.33 M⁻¹ s⁻¹.
